Test: label from the status in PepcDB records
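Further: failed if final PepcDB status was selected cloned or expressed and not failed if soluble or beyond.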

Which protein production does the source give for “MTARPDSSGASSRHDRLQRHPTPNARNSLWRWTDAKHPLRVALNYVVIVLARISPSLHAKNWLLARIGVTVGDGVAWGLESTPDVFWPELVTVGDDAIIGYDATLLCHEFLHDEYRTGAVVVEDRAMIGAGAVVLPGVTIGADAQVAANSLVTADVPPGETVAGVPAAPTGD” here?
Its protein production is “failed”.

Which protein production does the source give for “MSLSYLTEEKLTIVGAAGMIGSNMAQTAAMMRLTPNLCLYDPFAVGLEGVAEEIRHCGFEGLNLTFTSDIKEALTDAKYIVSSGGAPRKEGMTREDLLKGNAEIAAQLGKDIKSYCPDCKHVIIIFNPADITGLVTLIYSGLKPSQVTTLAGLDSTRLQSELAKHFGIKQSLVTNTRTYGGHGEQMAVFASTAKVNGTPLTDLIGTDKLTNEQWAELKQRVVKGGANIIKLRGRSSFQSPSYVSIEMIRAAMGGEAFRWPAGCYVNVPGFEHIMMAMETTITKDGVKHSDINQLGNEAERAALKESYSHLAKLRDEVIAMGIIPAIADWKTVNPNEGHHHHHH” here?
The protein production was “not failed”.

Which protein production does the source give for “MNYSTLTSVLLCLLLGAPAWADHYQVVTEEWAPYNYEENGQLTGMTTEIVRAIMAVSGNDFNIVLAPSMRASHTLQMRPKTIMYSMFRTPEREVLYKWVGPIVEESVHPYQLATAAPVTSLEQLLHAPQITTRHAGLLPDMLQSLGFKNLDKSAAQSVQLYRMLLNGRTAIIIGDTDAGVAYQSRQLNIAPGTLRQIPIELYRSSLYIAFSRDCEDELVASWARALETLRQSGELERIQRRYEQLVGQ” here?
Its protein production is “failed”.

With “MKKLLVIRNDKIGDFMLCFPAFMMLKQSMPNIEITALVPNYTAPLAELCPAIDHLIIDNTDKQDPIAFKQVQQAVQNGQFDAVICFVSSWYNAKLTWQSGIRYRLAPATKLFQFLYNHRLTQRRSQSIKAESEYNLDLARAFLIDHHMMPVEPQLEHHHHHH” as the sequence, how does the protein production read?
The protein production was “not failed”.

Which protein production does the source give for “MLSHMDGGTAGARVREVGWLAATLTALLLALLLEHYVIHEQMILPWIAVSPEVPPWMLGAQVVPEIIVCFLFGWRLRGLGWIVIYGAAAAALRQSFYALLTRIGASGHPETLFGPPSEFARTAPLVAVMYFMAFGLASMGAREPGPLPGARSRP” here?
Its protein production is “failed”.

Which protein production does the source give for “MPTVKSRLVLYFPGFDPLDAAAHHLRYQRAAALAGKTWDVNYAVGPRESRPAGEAFTVEASAGNWSTRSDIVVYDHNDVISQLRDASVWRQIWLGFKAGAGIVSEGGAARYLRHAWRFGLFFIFPFLLMLAGGALAAGIALSPWLFSLPLWLLVVSIPAAALFFVKAFLPFAERFHTLHLYADWRFALAVGRNEPIARDWIEERAALVVTALEEPSDEVLVVSHSMGASLALAVIGRVLELKPDALDGRKLSFATLGGAALQCAFLSSAERLRESIGAIARHPDVTWFDIQCLTDPIHLYRCNTVALTGHKDAPQPKIVPIRFKHSLSPERYKKNKRNFLRMHRQYVLGPDRRSGYDFTLLTAGPLPAASFADLESQSPPAL” here?
Its protein production is “failed”.

With “MTSSINSSPLNAIADQALGLDDAAVPAAIEPASDEPSFASLGLSPEIVSALEAAGYVKPTPVQQRAIPAGIAGRDLLVSSPTGSGKTAAFMLPAIERFAQLQKTLAQQPRTPREPSQGDRRVRRPQPVARPGLLVLTPTRELAMQVTTAASTYGKHLKRLRTVSILGGVAYGQQLMLLAKNPEILVATPGRLLDHLERGRIDLSELKMLVLDEADRMLDMGFIDDIETIVAATPASRQTMLFSATLDGKIGSLTGRLLKDPERIEIQQRLESRTNIAQTVHYVDDRDHKDRLLDHLLRDDALDQAIIFTATKIDADQLAGRLADAGFESAALHGDLPQGARNRTIRALRERRVRVLVATDVAARGIDIPGITHVFNYDLPKFAEDYVHRIGRTGRAGRSGTAVSLVHHAEQGALKRIERFVRSPLPVNVIEGFEPRKAPARTGSTGGRGRPGGGNGGRRFGGKPGGGHAGAGRSYGGGNGGGWSGKPSGSRDGGPRRDGQRSSGPRRSNSAS” as the sequence, how does the protein production read?
The protein production was “failed”.

For “RDLDAVLQAIVQRARSLLGTDVAYLTLHDEAEGDTYMRVTEGSVAARFQQLRLGMGEGLGGLVAQTARPYVTPDYFNDERFQHTRVIDGGVRDEGLVAILGVPLMIGPQVIGVLFAADRRARVFEREQIALLGSFAALAAAAIDTANLLTETRSALDRLARANEIIRDRSGVIERASDVHDRLAELVLRGG”, which protein production is on record?
The protein production was “failed”.

Which protein production does the source give for “MASRIIFLFSLLIMLGLATGLRGFSALLGFLAFLLLLIIVCQQYRRFLLLFLAILLFLCAWLYGVVQERQNETQLYPLVQSVEGTLISDPELDGDQFSATVKTTDGEKVLIRGRVQAEAEKDKLEMTQIGMVCSFVGQLEIPSEPTNPYQFNYRQFLDNNRIHWIFRTDLTQWQCSDQPTTLFMKVKRWRSEQLQDIYDLASDETAGLIAAFVYGDRSELDGELLSAYQSLGVIHLLAVSGLHVGLVVAAVFYLFIRLGVTRERAYELLLLFLPFYAIVAGAAPSVVRAVGMTMTVLLAFRFQKRLAPIIVLSLVAVIYIIIEPYAIFQLGFQLSFLTTCALLLSSSTLLQAINRPLLSLVKVTFLAQLISMPVILYHFFELPILSVPLNLLFVPVVSFVLLPLSFFVASSLLIHPGVAELPLFILEIIVPIVHQLLLVLNEQSFAAVVIGKPSLNSVFLMMISLIIGWAWLERKEPFKAWGAFSVVLFLIAWQIYSPYWSNEAIVTMIDVGQGDSFLIELPRRKAVYMIDTGGWVTYGEMEPWQERRNTRDIGEQVLTPILKGKGIRGIDKLILTHGHEDHFGGAEGLVRSIKVDEVVYGYKHAEYTEREMEVLSALKKAGASIRFVKSGDQWVIGSSSFRVLSPFGDEEELNDQSVVVYAVIEGVRFLFTGDLEEVGEKRLLEGYGDLKADVLKVGHHGSATSTTDPFLEAVHPVVALISAGRNNLYGHPNQDVLAALEQHETFVLRTDLHGAVKLTIRDGGIYARVMTTD” here?
Its protein production is “failed”.

For “MSVFAGLVEQLADVLQPLFHASAAAAAIVLFTALVRLLVHPLSRASARGQRARARLQPQVAELRKKHGKNPEKLQKALLELHAEEKVSPLSGCLPGLFQLPAFFLLYHLFSNTTIGGEGNELLTHTLFTAPLGDRWADALGDGGPFGTQGLVYLGLFAIVAAVATFNYRRTKRTMAANPLPVGDGEQQVPGLGAINRFMPLMSFFTLFTVAFVPLAAALYVVTSTTWSAVERAALYPVPERSS”, which protein production is on record?
Its protein production is “failed”.

With “MTATPGTTVPAPIMQTTDNSLTWLLQNLLDRTPGTRHALVLSRDGLRLCWTEHLTLDRADQLAAICSGIQALAQGASVEFGNGTGGVRHSMTEFHGGLLFIVEAGEGAHLAVVAVEDADPGVVGHQMTELVEQIGEHLRAEPRHAVPGGSSS” as the sequence, how does the protein production read?
Its protein production is “failed”.

Which protein production does the source give for “MFNLYPPHRSLEGAAILGDNCSRIFNVSDTVVNTLHIVMQSHANPLGILHGGNMIRWLVDAGTLAASKVVVGYPLLAGIDFIYLGKPVGVGETIAVFAWSPYAGRSSVEVGLAAYSLGRPGGQGLERVSAAHMTFVNVKPHEGVLRPHPHGSCIEAVDREEERLLEASMKMREARVERLRGRELLRQTVYSLRESGTEPFEVESYRIVNPIDSVAYDVMHAGAMLYIVDELGAVAALRSSAGIVVTGFVGPADFVAPMRVGEVLRMWARTSYVGRSSVEVLIRSASGFMGGGEARLTSEAYLTYISLDSSGRPLEINAPRGWEPEEQALRRAEWRRRLIRSIDSGETALEPPRRFLEMLMRGRVG” here?
Its protein production is “failed”.

With “FKVRVGEPGQAGNPALVSAYGTGLEGGTTGIQSEFFINTTRAGPGTLSVTIEGPSKVKMDCQETPEGYKVMYTPMAPGNYLISVKYGGPNHIVGSPFKAKVTGQRLVSPGSANETSSI” as the sequence, how does the protein production read?
Its protein production is “not failed”.

For “MPARQSFTDLKNLVLCDIGNTRIHFAQNYQLFSSAKEDLKRLGIQKEIFYISVNEENEKALLNCYPNAKNIAGFFHLETDYVGLGIDRQMACLAVNNGVVVDAGSAITIDLIKEGKHLGGCILPGLAQYIHAYKKSAKILEQPFKALDSLEVLPKSTRDAVNYGMVLSVIACIQHLAKNQKIYLCGGDAKYLSAFLPHSVCKERLVFDGMEIALKKAGILECK”, which protein production is on record?
The protein production was “not failed”.

Which protein production does the source give for “MSEAYFRVESGALGPEENFLSLDDILMSHEKLPVRTETAMPRLGAFFLERSAGAETDNAVPQGSKLELPLWLAKGLFDNKRRILSVELPKIYQEGWRTVFSADPNVVDLHKMGPHFYGFGSQLLHFDSPENADISQSLLQTFIGRFRRIMDSSQNAYNEDTSALVARLDEMERGLFQTGQKGLNDFQCWEKGQASQITASNLVQNYKKRKFTDMED” here?
The protein production was “failed”.

Which protein production does the source give for “MVKRTSHKQASCPVARPLDVIGDGWSMLIVRDAFEGLTRFGEFQKSLGLAKNILAARLRNLVEHGVMVAVPAESGSHQEYRLTDKGRALFPLLVAIRQWGEDYFFAPDESHVRLVERDSGQPVPRLQVRAGDGSPLAAEDTRVSRD” here?
Its protein production is “not failed”.

Which protein production does the source give for “SDSRPAVLDLIGNTPLVRVTRFDTGPCTLYLKLESQNPGGSIKDRIGVAMIEAAERDGRLRPGGTIVEATAGNTGLGLALVGRAKGYRVVLVVPDKMSTEKVLHLRAMGAEVHITRSDVGKGHPEYYQDVAARLAQDIPGAFFADQFNNPANPLAHECGTGPELWAQTGHDLDAIVVGVGSSGTLTGLTRFFQKVQPELEMVLADPEGSIMAEYSRSGTLGTPGSWAVEGIGEDFVPAIADLSSVRHAYSISDEESFAMARELLRVEGIPGGSSTGTLLAAALRFCREQKEPKRVVSFVCDTGTRYLSKIYNDQWMTDQGLLQRKHYGDLRDIIARRFEEGRVISVGPDDTLLTAFQRMRLADVSQLPVLDDGKLVGVIDESDILLGVHADAPRFRDAVSSAMNAAPETLAPGASLAQLQAVLDRGLVAIVADASGFHGLITRFDLL” here?
The protein production was “failed”.

With “MMRFSNKFKKVPYLLQALLNVCLSFLALALSALLISETWYIVLFVYKSLFNKVDSYYEMLGELLIFFMYFEFIALIIKYFKSDFHFPLRYFIYIGITAVIRLIIIDHDQAISTFWWAMAILAMICGFFIANRRNSVVEH” as the sequence, how does the protein production read?
The protein production was “failed”.

Which protein production does the source give for “MNDLSQWSISKDSNLDSPWIEGIPGCGIPGAGSLVEHIDRQILVLQRDGRYIVGLLRSYDQYANLVLENTFERFVLNDSYCDEPLGVFIIRGENVALLGEVDGEKESQWLSHLHTVSLEDTKKTIRGKRQATKALLHSQPERVEWTFYDDAFF” here?
The protein production was “not failed”.

With “MTISNGDVKSETCNNGSSEKKPFRIFVGYDPREDLAYQVCHHSITKRSSIPVEITPIIQSDLRKKGLYWRERGQLESTEFSFSRFLTPHLSDYQGWAMFVDCDFLYLADIKELTDLIDDKYAIMCVQHDYTPKETTKMDGAVQTVYPRKNWSSMVLYNCGHPKNKTLSPEIVNTQTGAFLHRFQWLEDEEIGSIPFVWNFLEGHNRVVEKDPTTQPKAVHYTRGGPWFDAWKDCEFADLWLNEMEEYNKENKKEADNAK” as the sequence, how does the protein production read?
The protein production was “failed”.

Which protein production does the source give for “LRGFVPSSVWLERGVFPPSNEEVIKLGLSPTSMVARLKRQRLADGVVMAIEMSTMPVAYLPDPQAVGTSLYAHLDATGHSVVRALQHIRAVNASGDVAQLAGIRPGEAMLLITRIGFNADNVAIELTDTYCRNDYYDFVAELKR” here?
The protein production was “not failed”.

With “MATLLGFSQTKFHHCGVWISTPPCSSSSTVVSMVGLNRTDSKKLRSDFLGQIGYEDRRQVRHSYCRSSLAVKMSWDGPLASVKLIIQGKNLELSEPIKQHVEEKVGKSVQKHSHLVREVDVRLSVRGGEFGKGPRIRRCEVTLFTKKHGVVRAEEDAETVYACIDLVSTIIQRKLRKIKEKDSDHGRHMKGFNRLKVREPVIEPVVEDVEDSTDSSVGEEEEEDDLIKEIVRTKTFEMPPLTVAEAVEQLELVSHDFYGFQNEETGEINIVYKRKEGGYGLIIPKKDGKAEKVEPLPTEQLNEHSFAE” as the sequence, how does the protein production read?
The protein production was “failed”.

With “MALDRIEAMRAFCRIVELGSFTRAADSLGVASTTLSGQIQVLERLLDIRLLHRSTRKVHPTNEGLAYYQRARKVIEDIDDLEASVSISRAVVKGRVAVEMPTPVGIHLVIPALHGFTERYPHIHLDIGCSERVVGLMQEGIDCAIRGGDIADQDLIARRVGQMRFCLCAAPAYLDAHPAITHPAQLARHRHLGFRFPGTGKRFVATLRKQRDSHPLDHPPHVYFNNGTAVTAGAAAGLGIAALPRAEVRHLLEAGALREILPDWTLTSMPMSVVYPQTHQLSARVQVFVQWVAELFEGDGLWKDA” as the sequence, how does the protein production read?
Its protein production is “failed”.

With “MNREEVLKQLQSIFRDILKKDNVCIDESSTSKDVDGWDSLTHMQIIAQIEKHFGVRFNFREVIKFKNVGDLCSALLTKMELEHHHHHH” as the sequence, how does the protein production read?
Its protein production is “not failed”.
